Common to all, as to assay: cleavage_in_vitro
In data set [1] the test system is T1, LPG10160 (Chryseobacterium ureilyticum).
T1 sequence: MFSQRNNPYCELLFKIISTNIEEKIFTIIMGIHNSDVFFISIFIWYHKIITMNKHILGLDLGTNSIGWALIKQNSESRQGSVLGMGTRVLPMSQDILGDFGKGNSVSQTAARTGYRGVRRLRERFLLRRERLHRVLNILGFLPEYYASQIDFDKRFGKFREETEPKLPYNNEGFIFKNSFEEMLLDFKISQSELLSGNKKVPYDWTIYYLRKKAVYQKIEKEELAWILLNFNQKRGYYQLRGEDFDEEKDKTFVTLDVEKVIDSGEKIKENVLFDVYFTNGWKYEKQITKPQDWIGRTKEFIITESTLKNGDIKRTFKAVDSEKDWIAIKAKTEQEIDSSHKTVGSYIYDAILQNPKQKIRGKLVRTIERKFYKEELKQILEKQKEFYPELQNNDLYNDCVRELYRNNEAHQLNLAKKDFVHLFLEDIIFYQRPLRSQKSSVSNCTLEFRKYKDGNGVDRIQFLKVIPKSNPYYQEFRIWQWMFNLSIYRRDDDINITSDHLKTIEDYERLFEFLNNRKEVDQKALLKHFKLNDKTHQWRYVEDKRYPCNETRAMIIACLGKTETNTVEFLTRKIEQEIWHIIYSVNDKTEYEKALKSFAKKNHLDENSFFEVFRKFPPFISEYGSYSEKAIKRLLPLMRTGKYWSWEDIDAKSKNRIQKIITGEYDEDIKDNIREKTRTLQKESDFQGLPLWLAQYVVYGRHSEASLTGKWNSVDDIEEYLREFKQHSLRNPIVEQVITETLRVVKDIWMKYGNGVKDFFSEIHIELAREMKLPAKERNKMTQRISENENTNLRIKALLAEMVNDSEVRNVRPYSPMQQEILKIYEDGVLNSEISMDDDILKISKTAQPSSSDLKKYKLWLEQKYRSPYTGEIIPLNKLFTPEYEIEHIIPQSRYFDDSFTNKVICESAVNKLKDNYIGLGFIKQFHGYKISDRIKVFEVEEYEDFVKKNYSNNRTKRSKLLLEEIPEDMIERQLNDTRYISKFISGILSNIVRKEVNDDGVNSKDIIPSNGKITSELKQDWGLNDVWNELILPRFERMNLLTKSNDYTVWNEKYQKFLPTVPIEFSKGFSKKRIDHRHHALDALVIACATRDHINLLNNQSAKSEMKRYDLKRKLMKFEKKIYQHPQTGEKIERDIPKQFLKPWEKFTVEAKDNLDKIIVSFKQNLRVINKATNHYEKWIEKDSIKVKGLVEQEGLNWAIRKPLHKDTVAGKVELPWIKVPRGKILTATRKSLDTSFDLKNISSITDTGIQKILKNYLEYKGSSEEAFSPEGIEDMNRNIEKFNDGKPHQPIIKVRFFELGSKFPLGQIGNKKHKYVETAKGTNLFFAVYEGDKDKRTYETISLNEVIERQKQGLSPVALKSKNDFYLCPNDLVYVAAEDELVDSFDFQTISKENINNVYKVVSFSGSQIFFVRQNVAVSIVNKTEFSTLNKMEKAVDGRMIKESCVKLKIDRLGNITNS
The conditions noted are these: PAM SEQ ID 84; 35% pure protein.

In data set [2] the test system is T2, LPG10134 (Brevundimonas vesicularis).
T2 sequence: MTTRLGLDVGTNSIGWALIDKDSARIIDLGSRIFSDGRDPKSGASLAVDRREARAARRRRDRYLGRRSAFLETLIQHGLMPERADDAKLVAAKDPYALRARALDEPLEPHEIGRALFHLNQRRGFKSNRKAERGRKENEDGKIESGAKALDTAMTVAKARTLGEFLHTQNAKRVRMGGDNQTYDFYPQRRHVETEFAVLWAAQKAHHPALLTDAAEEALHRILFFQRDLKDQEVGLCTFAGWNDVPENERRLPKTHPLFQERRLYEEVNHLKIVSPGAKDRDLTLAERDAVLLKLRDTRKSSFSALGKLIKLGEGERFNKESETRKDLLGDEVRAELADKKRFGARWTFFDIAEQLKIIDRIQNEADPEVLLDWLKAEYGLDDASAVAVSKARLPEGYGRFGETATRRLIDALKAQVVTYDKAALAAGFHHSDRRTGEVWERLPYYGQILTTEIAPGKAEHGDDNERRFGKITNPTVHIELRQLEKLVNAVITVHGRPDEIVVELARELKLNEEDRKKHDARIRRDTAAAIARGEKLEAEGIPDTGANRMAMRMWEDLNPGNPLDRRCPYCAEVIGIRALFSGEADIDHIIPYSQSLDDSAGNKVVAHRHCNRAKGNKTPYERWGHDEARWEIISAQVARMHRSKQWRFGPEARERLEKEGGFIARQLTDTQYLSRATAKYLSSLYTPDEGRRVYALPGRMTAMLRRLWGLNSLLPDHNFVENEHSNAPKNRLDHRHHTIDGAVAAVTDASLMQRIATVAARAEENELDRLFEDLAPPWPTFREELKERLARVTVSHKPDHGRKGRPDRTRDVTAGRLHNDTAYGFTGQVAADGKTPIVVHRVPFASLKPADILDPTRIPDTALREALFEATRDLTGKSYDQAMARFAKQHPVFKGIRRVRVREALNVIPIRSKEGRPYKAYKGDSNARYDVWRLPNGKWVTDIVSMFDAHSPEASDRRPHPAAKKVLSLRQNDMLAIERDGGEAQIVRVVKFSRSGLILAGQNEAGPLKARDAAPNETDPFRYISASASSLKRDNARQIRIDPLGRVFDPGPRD
The conditions noted are these: PAM NGG; 37C 120 min.

The test system of data set [3] is T3, LPG10155 (Chryseobacterium geocarposphaerae).
T3 sequence: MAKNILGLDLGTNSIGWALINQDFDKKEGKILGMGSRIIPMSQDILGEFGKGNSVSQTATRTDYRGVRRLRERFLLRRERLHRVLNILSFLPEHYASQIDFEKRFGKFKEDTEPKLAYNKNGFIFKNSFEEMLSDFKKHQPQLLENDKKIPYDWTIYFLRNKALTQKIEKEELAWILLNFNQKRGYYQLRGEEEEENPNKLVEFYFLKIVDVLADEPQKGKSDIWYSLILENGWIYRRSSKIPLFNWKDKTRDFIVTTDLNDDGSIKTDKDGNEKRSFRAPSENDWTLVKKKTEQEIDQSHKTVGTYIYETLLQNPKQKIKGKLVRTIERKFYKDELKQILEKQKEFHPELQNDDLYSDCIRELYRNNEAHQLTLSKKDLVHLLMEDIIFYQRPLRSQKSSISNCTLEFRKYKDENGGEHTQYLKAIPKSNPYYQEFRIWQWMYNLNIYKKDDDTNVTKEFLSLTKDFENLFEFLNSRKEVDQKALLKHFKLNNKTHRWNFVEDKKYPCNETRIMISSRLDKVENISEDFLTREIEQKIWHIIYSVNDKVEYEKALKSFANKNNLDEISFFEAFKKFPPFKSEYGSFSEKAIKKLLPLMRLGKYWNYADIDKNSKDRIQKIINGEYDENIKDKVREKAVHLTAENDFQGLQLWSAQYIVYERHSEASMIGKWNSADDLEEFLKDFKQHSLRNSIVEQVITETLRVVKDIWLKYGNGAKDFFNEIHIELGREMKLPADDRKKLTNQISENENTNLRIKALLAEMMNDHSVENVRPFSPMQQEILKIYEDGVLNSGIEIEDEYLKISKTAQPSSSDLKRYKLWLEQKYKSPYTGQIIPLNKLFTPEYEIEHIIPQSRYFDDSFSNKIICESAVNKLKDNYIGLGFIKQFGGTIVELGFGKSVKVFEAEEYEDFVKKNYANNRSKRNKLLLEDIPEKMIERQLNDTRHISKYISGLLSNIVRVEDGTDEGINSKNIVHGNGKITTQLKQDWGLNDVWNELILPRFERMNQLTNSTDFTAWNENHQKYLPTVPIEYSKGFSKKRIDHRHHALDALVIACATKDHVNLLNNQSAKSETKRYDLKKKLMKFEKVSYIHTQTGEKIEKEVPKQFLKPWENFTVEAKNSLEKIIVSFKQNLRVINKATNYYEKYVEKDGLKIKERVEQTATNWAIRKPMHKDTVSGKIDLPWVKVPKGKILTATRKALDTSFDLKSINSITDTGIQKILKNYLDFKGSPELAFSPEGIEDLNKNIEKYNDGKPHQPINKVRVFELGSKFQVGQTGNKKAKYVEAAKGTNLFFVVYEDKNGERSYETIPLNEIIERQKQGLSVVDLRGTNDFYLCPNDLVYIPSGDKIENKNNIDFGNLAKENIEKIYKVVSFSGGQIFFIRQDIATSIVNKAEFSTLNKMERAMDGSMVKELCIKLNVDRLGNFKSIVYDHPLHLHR
The conditions noted are these: PAM SEQ ID 82.

Sequence “GUUGUGAUUUGCUUUAAAGAAAGCAAUUCACAAUAAGGAUUAUUCCGUUGUGAAAACAUUUAAGCCCCCUCGUCUUACAAUACGGGGAUUU / GATATAGACGTTGTGGCTGTTGTAGTAAATATTC / GAATATTTACTACAACAGCCACAACGTCTATATC [LPG10160 sgRNA L2 ; Library 2 target AAATATTC]” had an activity (% target strand cleaved) in data set [1] of 0.

In data set [2], “GUUGCCGCUGGCCUUCGAUUUCUGAAAAGUCAGAAAUCGAAGGCUGGCUGUUAACAAGCAGCUAGACUGCACCAAAUAAGGGCGGGGCUACGGCCCCGUCUUUUGAGCGGACAGCAGCUUCCUAUAUCUCGUAC / GGACAGCAGCTTCCTATATCTCGTACAGGACCTC / GAGGTCCTGTACGAGATATAGGAAGCTGCTGTCC [LPG10134 sgRNA L1 ; Library 1 target AGGACCTC]” displayed an activity (% target strand cleaved) of 0.

Sequence “CCAUGAUAUAGACGUUGUGGCUGUUGUAGUGUUGCCGCUGGCCUUCGAUUUCUGAAAAGUCAGAAAUCGAAGGCUGGCUGUUAACAAGCAGCUAGACUGCACCAAAUAAGGGCGGGGCUACGGCCCCGUCUUUU / GATATAGACGTTGTGGCTGTTGTAGTAGGACCTC / GAGGTCCTACTACAACAGCCACAACGTCTATATC [LPG10134 sgRNA L2 ; Library 2 target AGGACCTC]” registered an activity (% target strand cleaved) in data set [2] of 0.

Regarding “GUUGUGAAUUGCUUUAAAGAAAGCAAUUCACAAUAAGGAUUAUUCCGUUGUGAAAACAUCUAGCGCCUCGUCUAUCUACGGGGCAUUUU / GGACAGCAGCTTCCTATATCTCGTACAGAAATTC / GAATTTCTGTACGAGATATAGGAAGCTGCTGTCC [LPG10155 sgRNA L1 ; Library 1 target AGAAATTC]”, in data set [3], the activity (% target strand cleaved) amounted to 32.7.

On to “GUUGUGAUUUGCUUUAAAGAAAGCAAUUCACAAUAAGGAUUAUUCCGUUGUGAAAACAUUUAAGCCCCCUCGUCUUACAAUACGGGGAUUU / GGACAGCAGCTTCCTATATCTCGTACAAATATTC / GAATATTTGTACGAGATATAGGAAGCTGCTGTCC [LPG10160 sgRNA L1 ; Library 1 target AAATATTC]”, for which, in data set [1], the activity (% target strand cleaved) is 0.

In data set [3], “GUUGUGAAUUGCUUUAAAGAAAGCAAUUCACAAUAAGGAUUAUUCCGUUGUGAAAACAUCUAGCGCCUCGUCUAUCUACGGGGCAUUUU / GATATAGACGTTGTGGCTGTTGTAGTAGAAATTC / GAATTTCTACTACAACAGCCACAACGTCTATATC [LPG10155 sgRNA L2 ; Library 2 target AGAAATTC]” showed an activity (% target strand cleaved) of 7.6.

These data come from patent publication US20240376455.
